{"source": "paper PMC5912465", "target": "CCL8 (human chemokine panel) (human) (UniProt P80075)", "sequence (P80075 24-99)": "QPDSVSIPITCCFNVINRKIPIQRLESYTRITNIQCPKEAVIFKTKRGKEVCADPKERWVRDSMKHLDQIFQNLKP", "data": [{"substance": "P672(1_44)-EVA1(29_94) hybrid evasin (from UniProt L7MC74;P0C8E7)", "values": [{"measurement": "IC50 of neutralization of CCL8-induced THP-1 monocyte cell migration (EC80 dose of CCL8)", "value": 48, "unit": "nM"}]}]}
